Laboratory results published in the supplement of paper PMC10567573.

B1: ZBTB22 (parent)
chain: HTGLKPYECGVCAKKFMWRDSFMR

Variants of: B1
Experiment: protein stability index of a GFP-peptide fusion (GPS, HEK-293T) (PSI 1-6); higher = more stable
Settings: c terminus: a fixed tail appended
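Further: lentivirally expressed fusions sorted by FACS into six bins by GFP to DsRed ratio, PSI derived from sequencing read proportions per bin multiplied by bin number.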

**Q.** For HTGLKPYECGNCAKKFMWRDSFMR [V11N], which protein stability index is on record?
**A.** 1.37

**Q.** Which protein stability index does the source give for HTGLKPYECGKCAKKFMWRDSFMR [V11K] here?
**A.** 2.98

**Q.** Which protein stability index does the source give for HTGLKPYECGPCAKKFMWRDSFMR [V11P] here?
**A.** 3.87

**Q.** For HTGLKPYECGGCAKKFMWRDSFMR [V11G], which protein stability index is on record?
**A.** 1.25

**Q.** For HTGLKPYECGLCAKKFMWRDSFMR [V11L], which protein stability index is on record?
**A.** 1.85

**Q.** With HTGLKPYECGDCAKKFMWRDSFMR [V11D] as the variant, how does the protein stability index read?
**A.** 3.26

**Q.** Which protein stability index does the source give for HTGLKPYECGYCAKKFMWRDSFMR [V11Y] here?
**A.** 2.59

**Q.** With HTGLKPYECGICAKKFMWRDSFMR [V11I] as the variant, how does the protein stability index read?
**A.** 3.5

**Q.** With HTGLKPYECGHCAKKFMWRDSFMR [V11H] as the variant, how does the protein stability index read?
**A.** 2.37

**Q.** With HTGLKPYECGQCAKKFMWRDSFMR [V11Q] as the variant, how does the protein stability index read?
**A.** 1.8

**Q.** Which protein stability index does the source give for HTGLKPYECGFCAKKFMWRDSFMR [V11F] here?
**A.** 2.4

**Q.** With HTGLKPYECGRCAKKFMWRDSFMR [V11R] as the variant, how does the protein stability index read?
**A.** 1.75

**Q.** With HTGLKPYECGECAKKFMWRDSFMR [V11E] as the variant, how does the protein stability index read?
**A.** 2.09

**Q.** With HTGLKPYECGTCAKKFMWRDSFMR [V11T] as the variant, how does the protein stability index read?
**A.** 1.83

**Q.** For HTGLKPYECGVCAKKFMWRNSFMR [D20N], which protein stability index is on record?
**A.** 2.48

**Q.** For HTGLKPYECGVCAKKFMWRKSFMR [D20K], which protein stability index is on record?
**A.** 3.45

**Q.** Which protein stability index does the source give for HTGLKPYECGVCAKKFMWRGSFMR [D20G] here?
**A.** 3.52

**Q.** With HTGLKPYECGVCAKKFMWRYSFMR [D20Y] as the variant, how does the protein stability index read?
**A.** 2.74

**Q.** For HTGLKPYECGVCAKKFMWRHSFMR [D20H], which protein stability index is on record?
**A.** 2.65

**Q.** For HTGLKPYECGVCAKKFMWRCSFMR [D20C], which protein stability index is on record?
**A.** 3.48

**Q.** With HTGLKPYECGVCAKKFMWRPSFMR [D20P] as the variant, how does the protein stability index read?
**A.** 1.72

**Q.** Which protein stability index does the source give for HTGLKPYECGVCAKKFMWRISFMR [D20I] here?
**A.** 2.1

**Q.** With HTGLKPYECGVCAKKFMWRFSFMR [D20F] as the variant, how does the protein stability index read?
**A.** 2.08

**Q.** With HTGLKPYECGVCAKKFMWRVSFMR [D20V] as the variant, how does the protein stability index read?
**A.** 1.69

**Q.** Which protein stability index does the source give for HTGLKPYECGVCAKKFMWRQSFMR [D20Q] here?
**A.** 1.74

**Q.** Which protein stability index does the source give for HTGLKPYECGVCAKKFMWRSSFMR [D20S] here?
**A.** 2.08

**Q.** Which protein stability index does the source give for HTGLKPYECGVCAKKFMWRLSFMR [D20L] here?
**A.** 2.27

**Q.** With HTGLKPYECGVCAKKFMWRASFMR [D20A] as the variant, how does the protein stability index read?
**A.** 2.16

**Q.** Which protein stability index does the source give for HTGLKPYECGVCAKKFMNRDSFMR [W18N] here?
**A.** 1.61

**Q.** With HTGLKPYECGVCAKKFMSRDSFMR [W18S] as the variant, how does the protein stability index read?
**A.** 1.52

**Q.** With HTGLKPYECGVCAKKFMCRDSFMR [W18C] as the variant, how does the protein stability index read?
**A.** 1.85

**Q.** For HTGLKPYECGVCAKKFMPRDSFMR [W18P], which protein stability index is on record?
**A.** 2.88

**Q.** For HTGLKPYECGVCAKKFMLRDSFMR [W18L], which protein stability index is on record?
**A.** 3.88

**Q.** With HTGLKPYECGVCAKKFMYRDSFMR [W18Y] as the variant, how does the protein stability index read?
**A.** 3

**Q.** Which protein stability index does the source give for HTGLKPYECGVCAKKFMERDSFMR [W18E] here?
**A.** 2.75

**Q.** Which protein stability index does the source give for HTGLKPYECGVCAKKFMIRDSFMR [W18I] here?
**A.** 1.57

**Q.** For HTGLKPYECGVCAKKFMRRDSFMR [W18R], which protein stability index is on record?
**A.** 2.05

**Q.** Which protein stability index does the source give for HTGLKPYECGVCAKKFMTRDSFMR [W18T] here?
**A.** 1.68

**Q.** With HTGLKPYECGVCAKKFMDRDSFMR [W18D] as the variant, how does the protein stability index read?
**A.** 2.09

**Q.** With HTGLKPYECGVCAKKFMMRDSFMR [W18M] as the variant, how does the protein stability index read?
**A.** 1.78

**Q.** With HTGLKPYECGVCAKKFMHRDSFMR [W18H] as the variant, how does the protein stability index read?
**A.** 2.81

**Q.** For HTGLKPYECGVCAKKFMVRDSFMR [W18V], which protein stability index is on record?
**A.** 2.43

**Q.** For HTGLKPYECGVCAKKFMARDSFMR [W18A], which protein stability index is on record?
**A.** 1.06

**Q.** With HTGLKPYECGVCAKKFMKRDSFMR [W18K] as the variant, how does the protein stability index read?
**A.** 1.75

**Q.** With HTGLKPYECGVCAKKFMWRDFFMR [S21F] as the variant, how does the protein stability index read?
**A.** 1.98

**Q.** With HTGLKPYECGVCAKKFMWRDAFMR [S21A] as the variant, how does the protein stability index read?
**A.** 2.23

**Q.** Which protein stability index does the source give for HTGLKPYECGVCAKKFMWRDHFMR [S21H] here?
**A.** 2.26

**Q.** For HTGLKPYECGVCAKKFMWRDGFMR [S21G], which protein stability index is on record?
**A.** 2.9

**Q.** For HTGLKPYECGVCAKKFMWRDEFMR [S21E], which protein stability index is on record?
**A.** 1.78

**Q.** With HTGLKPYEMGVCAKKFMWRDSFMR [C9M] as the variant, how does the protein stability index read?
**A.** 2.58

**Q.** Which protein stability index does the source give for HTGLKPYERGVCAKKFMWRDSFMR [C9R] here?
**A.** 1.8

**Q.** For HTGLKPYEAGVCAKKFMWRDSFMR [C9A], which protein stability index is on record?
**A.** 1.46

**Q.** For HTGLKPYEDGVCAKKFMWRDSFMR [C9D], which protein stability index is on record?
**A.** 1.85

**Q.** Which protein stability index does the source give for HTGLKPYENGVCAKKFMWRDSFMR [C9N] here?
**A.** 2.26

**Q.** Which protein stability index does the source give for HTGLKPYEEGVCAKKFMWRDSFMR [C9E] here?
**A.** 1.1

**Q.** For HTGLKPYEFGVCAKKFMWRDSFMR [C9F], which protein stability index is on record?
**A.** 3.19

**Q.** With HTGLKPYEPGVCAKKFMWRDSFMR [C9P] as the variant, how does the protein stability index read?
**A.** 2.65

**Q.** Which protein stability index does the source give for HTGLKPYEVGVCAKKFMWRDSFMR [C9V] here?
**A.** 2.02

**Q.** Which protein stability index does the source give for HTGLKPYESGVCAKKFMWRDSFMR [C9S] here?
**A.** 1.42

**Q.** Which protein stability index does the source give for HTGLKPYETGVCAKKFMWRDSFMR [C9T] here?
**A.** 1.78

**Q.** For HTGLKPYEKGVCAKKFMWRDSFMR [C9K], which protein stability index is on record?
**A.** 2.22

**Q.** Which protein stability index does the source give for HTGLKPYEIGVCAKKFMWRDSFMR [C9I] here?
**A.** 1.98

**Q.** With HTGLKPYEQGVCAKKFMWRDSFMR [C9Q] as the variant, how does the protein stability index read?
**A.** 1.65

**Q.** For HTGLKPYEHGVCAKKFMWRDSFMR [C9H], which protein stability index is on record?
**A.** 1.48

**Q.** With HTGLKPYEWGVCAKKFMWRDSFMR [C9W] as the variant, how does the protein stability index read?
**A.** 2.35

**Q.** With HTGLKPYELGVCAKKFMWRDSFMR [C9L] as the variant, how does the protein stability index read?
**A.** 2.75

**Q.** With HTGLKPYEGGVCAKKFMWRDSFMR [C9G] as the variant, how does the protein stability index read?
**A.** 2.23

**Q.** For HTGLKPYECGVCAKKFSWRDSFMR [M17S], which protein stability index is on record?
**A.** 1.9

**Q.** With HTGLKPYECGVCAKKFFWRDSFMR [M17F] as the variant, how does the protein stability index read?
**A.** 3.05

**Q.** For HTGLKPYECGVCAKKFLWRDSFMR [M17L], which protein stability index is on record?
**A.** 2.18

**Q.** For HTGLKPYECGVCAKKFYWRDSFMR [M17Y], which protein stability index is on record?
**A.** 1.53

**Q.** For HTGLKPYECGVCAKKFKWRDSFMR [M17K], which protein stability index is on record?
**A.** 1.27

**Q.** Which protein stability index does the source give for HTGLKPYECGVCAKKFDWRDSFMR [M17D] here?
**A.** 1.84

**Q.** Which protein stability index does the source give for HTGLKPYECGVCAKKFAWRDSFMR [M17A] here?
**A.** 2.39

**Q.** For HTGLKPYECGVCAKKFRWRDSFMR [M17R], which protein stability index is on record?
**A.** 1.39

**Q.** With HTGLKPYECGVCAKKFWWRDSFMR [M17W] as the variant, how does the protein stability index read?
**A.** 2.45

**Q.** With HTGLKPYECGVCAKKFTWRDSFMR [M17T] as the variant, how does the protein stability index read?
**A.** 3.13

**Q.** Which protein stability index does the source give for HTGLKPYECGVCAKKFPWRDSFMR [M17P] here?
**A.** 2.35

**Q.** For HTGLKPYECGVCAKKFIWRDSFMR [M17I], which protein stability index is on record?
**A.** 2.8

**Q.** For HTGLKPYECGVCAKKFQWRDSFMR [M17Q], which protein stability index is on record?
**A.** 1.64

**Q.** Which protein stability index does the source give for HTGLKPYECGVCAKKFCWRDSFMR [M17C] here?
**A.** 2.27

**Q.** Which protein stability index does the source give for HTGLKPYICGVCAKKFMWRDSFMR [E8I] here?
**A.** 2.78

**Q.** For HTGLKPYTCGVCAKKFMWRDSFMR [E8T], which protein stability index is on record?
**A.** 2.61

**Q.** For HTGLKPYYCGVCAKKFMWRDSFMR [E8Y], which protein stability index is on record?
**A.** 1.3

**Q.** For HTGLKPYMCGVCAKKFMWRDSFMR [E8M], which protein stability index is on record?
**A.** 2.26

**Q.** With HTGLKPYLCGVCAKKFMWRDSFMR [E8L] as the variant, how does the protein stability index read?
**A.** 1.49

**Q.** With HTGLKPYFCGVCAKKFMWRDSFMR [E8F] as the variant, how does the protein stability index read?
**A.** 2.2

**Q.** With HTGLKPYPCGVCAKKFMWRDSFMR [E8P] as the variant, how does the protein stability index read?
**A.** 2.59

**Q.** Which protein stability index does the source give for HTGLKPYECGVIAKKFMWRDSFMR [C12I] here?
**A.** 3.24

**Q.** For HTGLKPYECGVWAKKFMWRDSFMR [C12W], which protein stability index is on record?
**A.** 3.06

**Q.** For HTGLKPYECGVSAKKFMWRDSFMR [C12S], which protein stability index is on record?
**A.** 2.56

**Q.** With HTGLKPYECGVGAKKFMWRDSFMR [C12G] as the variant, how does the protein stability index read?
**A.** 3.24

**Q.** For HTGLKPYECGVYAKKFMWRDSFMR [C12Y], which protein stability index is on record?
**A.** 2.91

**Q.** Which protein stability index does the source give for HTGLKPYECGVAAKKFMWRDSFMR [C12A] here?
**A.** 1.62
